According to patent US10618965 (dated 2020):
Where two headings read alike, the source gives them in different places.

What was measured:
[1] = biological target: human FcRn (with beta2-microglobulin) (human); experiment: SPR, pH 7.0
[2] = biological target: human FcRn (with beta2-microglobulin) (human); experiment: SPR, pH 7.0; remark: listed apart in the source
[3] = biological target: human FcRn (with beta2-microglobulin) (human); experiment: SPR, neutral pH
[4] = biological target: T1, human FcgRIIb (human); experiment: SPR
T1 chain: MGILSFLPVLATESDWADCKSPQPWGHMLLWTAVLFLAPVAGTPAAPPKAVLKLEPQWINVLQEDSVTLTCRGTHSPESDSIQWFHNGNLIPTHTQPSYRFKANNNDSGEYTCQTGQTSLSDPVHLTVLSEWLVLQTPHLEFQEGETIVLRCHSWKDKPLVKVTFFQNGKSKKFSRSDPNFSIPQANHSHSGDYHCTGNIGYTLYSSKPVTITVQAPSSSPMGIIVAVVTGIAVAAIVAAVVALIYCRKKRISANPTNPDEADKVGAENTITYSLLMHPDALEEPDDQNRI

[5] = biological target: T2, human FcgRIIa(R) (human); experiment: SPR
T2 chain: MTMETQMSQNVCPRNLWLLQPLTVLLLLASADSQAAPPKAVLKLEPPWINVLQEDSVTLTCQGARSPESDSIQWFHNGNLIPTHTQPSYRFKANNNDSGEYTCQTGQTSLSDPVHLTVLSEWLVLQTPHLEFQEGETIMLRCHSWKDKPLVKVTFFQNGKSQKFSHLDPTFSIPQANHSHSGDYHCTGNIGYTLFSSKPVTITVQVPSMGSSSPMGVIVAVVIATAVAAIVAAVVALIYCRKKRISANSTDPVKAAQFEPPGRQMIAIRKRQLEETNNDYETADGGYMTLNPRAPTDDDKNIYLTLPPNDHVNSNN

[6] = biological target: T1, human FcgRIIb; experiment: SPR
[7] = biological target: T2, human FcgRIIa(R); experiment: SPR
[8] = biological target: human FcgRIa (human); experiment: SPR
Chain of human FcgRIa (human) (chain, as listed by the source): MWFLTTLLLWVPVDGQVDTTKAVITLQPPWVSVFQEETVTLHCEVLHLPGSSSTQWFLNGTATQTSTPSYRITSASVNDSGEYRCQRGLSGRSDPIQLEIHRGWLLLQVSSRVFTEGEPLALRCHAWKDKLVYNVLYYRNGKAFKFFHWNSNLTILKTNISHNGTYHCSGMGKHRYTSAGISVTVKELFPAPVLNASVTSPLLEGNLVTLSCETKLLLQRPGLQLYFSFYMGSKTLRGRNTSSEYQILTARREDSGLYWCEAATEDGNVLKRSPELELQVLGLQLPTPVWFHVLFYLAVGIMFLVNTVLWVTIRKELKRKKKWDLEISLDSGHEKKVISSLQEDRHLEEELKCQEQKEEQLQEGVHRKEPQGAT

[9] = biological target: human FcgRIa (human); experiment: SPR; remark: listed apart in the source
[10] = biological target: T3, human FcgRIIa(H) (human); experiment: SPR
T3 chain: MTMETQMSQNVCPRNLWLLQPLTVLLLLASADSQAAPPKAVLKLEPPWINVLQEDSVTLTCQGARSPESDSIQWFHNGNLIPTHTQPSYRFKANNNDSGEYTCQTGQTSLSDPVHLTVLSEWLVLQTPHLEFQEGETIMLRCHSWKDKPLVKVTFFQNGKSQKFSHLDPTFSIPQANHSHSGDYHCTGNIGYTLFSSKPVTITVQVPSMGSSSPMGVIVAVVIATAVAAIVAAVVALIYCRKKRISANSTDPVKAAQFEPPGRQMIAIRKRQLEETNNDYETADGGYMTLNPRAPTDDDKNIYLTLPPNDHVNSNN

[11] = biological target: T1, human FcgRIIb; experiment: SPR
[12] = biological target: T2, human FcgRIIa(R); experiment: SPR
[13] = biological target: human FcgRIa (human); experiment: SPR; remark: listed apart in the source
[14] = biological target: T4, mouse FcRn (mouse, UniProt Q61559); experiment: SPR, pH 7.0
T4 chain 1: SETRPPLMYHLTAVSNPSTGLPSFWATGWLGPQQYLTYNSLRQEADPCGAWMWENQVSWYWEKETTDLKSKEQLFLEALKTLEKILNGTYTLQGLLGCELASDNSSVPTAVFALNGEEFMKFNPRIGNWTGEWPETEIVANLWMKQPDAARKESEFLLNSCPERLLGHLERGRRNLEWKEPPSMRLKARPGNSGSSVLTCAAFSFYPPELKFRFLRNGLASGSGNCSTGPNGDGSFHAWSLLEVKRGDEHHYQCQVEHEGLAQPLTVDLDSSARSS
T4 chain 2: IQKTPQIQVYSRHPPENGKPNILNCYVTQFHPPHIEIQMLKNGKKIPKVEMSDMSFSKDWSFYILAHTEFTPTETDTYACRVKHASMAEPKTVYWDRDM

[15] = biological target: human FcRn (with beta2-microglobulin) (human); experiment: SPR, pH 7.0; remark: listed apart in the source
[16] = biological target: human FcRn (with beta2-microglobulin) (human); experiment: SPR, pH 7.0; remark: listed apart in the source

Chain of human FcRn (with beta2-microglobulin) (human) (chain, as listed by the source, chain 1 of 2): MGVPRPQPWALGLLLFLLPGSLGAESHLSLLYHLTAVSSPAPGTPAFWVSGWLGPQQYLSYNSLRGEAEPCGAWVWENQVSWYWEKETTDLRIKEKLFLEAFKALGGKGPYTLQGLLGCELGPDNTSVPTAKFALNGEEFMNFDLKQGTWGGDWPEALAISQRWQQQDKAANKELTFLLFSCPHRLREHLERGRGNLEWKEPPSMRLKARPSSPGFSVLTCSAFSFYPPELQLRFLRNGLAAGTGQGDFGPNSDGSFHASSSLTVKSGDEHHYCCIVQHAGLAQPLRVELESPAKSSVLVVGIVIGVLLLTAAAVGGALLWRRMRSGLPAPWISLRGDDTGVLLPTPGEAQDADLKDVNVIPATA
Chain of human FcRn (with beta2-microglobulin) (human) (chain, as listed by the source, chain 2 of 2): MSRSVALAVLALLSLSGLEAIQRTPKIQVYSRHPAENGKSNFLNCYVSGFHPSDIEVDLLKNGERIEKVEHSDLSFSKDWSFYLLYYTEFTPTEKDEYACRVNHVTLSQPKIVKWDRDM

B1: IgG1-F140 (antibody)
chain 1: QVQLQESGPGLVKPSETLSLTCAVSGHSISHDHAWSWVRQPPGEGLEWIGFISYSGITNYNPSLQGRVTISRDNSKNTLYLQMNSLRAEDTAVYYCARSLARTTAMDYWGEGTLVTVSSASTKGPSVFPLAPSSKSTSGGTAALGCLVKDYFPEPVTVSWNSGALTSGVHTFPAVLQSSGLYSLSSVVTVPSSSLGTQTYICNVNHKPSNTKVDKKVEPKSCDKTHTCPPCPAPELLGGPKVFLFPPKPKDTLYISRTPEVTCVVVDVSHEDPEVKFNWYVDGVEVHNAKTKPREEQYNSTYRVVSVLTPLHQDWLNGKEYKCKVSNKALPAPIEKTISKAKGQPREPQVYTLPPSRDELTKNQVSLTCLVKGFYPSDIAVEWESNGQPENNYKTTPPVLDSDGSFFLYSKLTVDKSRWQQGNVFSCSVMHEALHYHYTQKSLSLSP
chain 2: not shown
- Kd [1]: 0.036 µM
- Kd [2]: 0.036 µM

B2: IgG1-F21 (antibody)
chain 1: QVQLQESGPGLVKPSETLSLTCAVSGHSISHDHAWSWVRQPPGEGLEWIGFISYSGITNYNPSLQGRVTISRDNSKNTLYLQMNSLRAEDTAVYYCARSLARTTAMDYWGEGTLVTVSSASTKGPSVFPLAPSSKSTSGGTAALGCLVKDYFPEPVTVSWNSGALTSGVHTFPAVLQSSGLYSLSSVVTVPSSSLGTQTYICNVNHKPSNTKVDKKVEPKSCDKTHTCPPCPAPELLGGPSVFLFPPKPKDTLYISRTPEVTCVVVDVSHEDPEVKFNWYVDGVEVHNAKTKPREEQYNSTYRVVSVLTPLHQDWLNGKEYKCKVSNKALPAPIEKTISKAKGQPREPQVYTLPPSRDELTKNQVSLTCLVKGFYPSDIAVEWESNGQPENNYKTTPPVLDSDGSFFLYSKLTVDKSRWQQGNVFSCSVMHEALHYHYTQKSLSLSP
chain 2: not shown
- Kd [1]: 0.03 µM
- Kd [2]: 0.03 µM
- Kd [3]: 0.03 µM

B3: IL6R-BF648 (antibody)
chain 1: not shown
chain 2: DIQMTQSPSSLSASVGDRVTITCRASQDISSYLNWYQQKPGKAPKLLIYYTSRLHSGVPSRFSGSGSGTDFTFTISSLQPEDIATYYCQQGNTLPYTFGQGTKVEIK
- Kd [4]: 1.2 µM
- Kd [5]: 15 µM
- Kd [6]: 1.2 µM
- Kd [7]: 15 µM
- Kd [8]: 0.011 µM
- Kd [9]: 0.011 µM

B4: IL6R-F11/IL6R-L (antibody)
chain 1: not shown
chain 2: DIQMTQSPSSLSASVGDRVTITCRASQDISSYLNWYQQKPGKAPKLLIYYTSRLHSGVPSRFSGSGSGTDFTFTISSLQPEDIATYYCQQGNTLPYTFGQGTKVEIK
- Kd [10]: 5 µM
- Kd [11]: 6.8 µM
- Kd [12]: 5 µM
- Kd [13]: 0.0009 µM

B5: mF40 (antibody)
chain 1: DVQLQESGPVLVKPSQSLSLTCTVTGYSITSDHAWSWIRQFPGNKLEWMGYISYSGITTYNPSLKSRISITRDTSKNQFFLQLNSVTTGDTSTYYCARSLARTTAMDYWGQGTSVTVSSAKTTPPSVYPLAPGSAAQTNSMVTLGCLVKGYFPEPVTVTWNSGSLSSGVHTFPAVLQSDLYTLSSSVTVPSSTWPSETVTCNVAHPASSTKVDKKIVPRDCGCKPCICTVKEVSKVFIFPPKPKDVLYITLEPKVTCVVVDISKDDPEVQFSWFVDDVEVHTAQTQPREEQFNSTFRSVSELPIMHQDWLNGKEFKCRVNSAAFPAPIEKTISKTKGRPKAPQVYTIPPPKEQMAKDKVSLTCMITDFFPEDITVEWQWNGQPAENYKNTQPIMDTDGSYFVYSKLNVQKSNWEAGNTFTCSVLHEGLHWHHTEKSLSHSPGK
chain 2: not shown
- Kd [14]: 0.0032 µM

B6: IgG1-F699 (antibody)
chain 1: QVQLQESGPGLVKPSETLSLTCAVSGHSISHDHAWSWVRQPPGEGLEWIGFISYSGITNYNPSLQGRVTISRDNSKNTLYLQMNSLRAEDTAVYYCARSLARTTAMDYWGEGTLVTVSSASTKGPSVFPLAPSSKSTSGGTAALGCLVKDYFPEPVTVSWNSGALTSGVHTFPAVLQSSGLYSLSSVVTVPSSSLGTQTYICNVNHKPSNTKVDKKVEPKSCDKTHTCPPCPAPELLGGPKVFLFPPKPKDTLYISRTPEVTCVVVDVSHEDPEVKFNWYVDGVEVHEAKTKPREEQYNSTYRVVSVLQVLHADWLNGKEYKCKVSNKALPAPIEKTISKAKGQPREPQVYTLPPSRDELTKNQVSLTCLVKGFYPSDIAVEWESNGQPENNYKTTPPVLDSDGSFFLYSKLTVDKSRWQQGNVFSCSVMHEALHYHYTQKSLSLSP
chain 2: not shown
- Kd [15]: 0.023 µM

B7: IgG1-F763 (antibody)
chain 1: QVQLQESGPGLVKPSETLSLTCAVSGHSISHDHAWSWVRQPPGEGLEWIGFISYSGITNYNPSLQGRVTISRDNSKNTLYLQMNSLRAEDTAVYYCARSLARTTAMDYWGEGTLVTVSSASTKGPSVFPLAPSSKSTSGGTAALGCLVKDYFPEPVTVSWNSGALTSGVHTFPAVLQSSGLYSLSSVVTVPSSSLGTQTYICNVNHKPSNTKVDKKVEPKSCDKTHTCPPCPAPELRGGPKVFLFPPKPKDTLYISRTPEVTCVVVDVSHEDPEVKFNWYVDGVEVHEAKTKPREEQYNSTYRVVSVLQVLHADWLNGKEYKCKVSNKALPAPIEKTISKAKGQPREPQVYTLPPSRDELTKNQVSLTCLVKGFYPSDIAVEWESNGQPENNYKTTPPVLDSDGSFFLYSKLTVDKSRWQQGNVFSCSVMHEALHYHYTQKSLSLSP
chain 2: not shown
- Kd [16]: 0.035 µM

B8: F38 (antibody)
chain 1: QVQLQESGPGLVKPSETLSLTCAVSGHSISHDHAWSWVRQPPGEGLEWIGFISYSGITNYNPSLQGRVTISRDNSKNTLYLQMNSLRAEDTAVYYCARSLARTTAMDYWGEGTLVTVSSASTKGPSVFPLAPSSKSTSGGTAALGCLVKDYFPEPVTVSWNSGALTSGVHTFPAVLQSSGLYSLSSVVTVPSSSLGTQTYICNVNHKPSNTKVDKKVEPKSCDKTHTCPPCPAPELLGGPSVFLFPPKPKDTLYITRTPEVTCVVVDVSHEDPEVKFNWYVDGVEVHNAKTKPREEQYNSTYRVVSVLTVLHQDWLNGKEYKCKVSNKALPAPIEKTISKAKGQPREPQVYTLPPSRDELTKNQVSLTCLVKGFYPSDIAVEWESNGQPENNYKTTPPVLDSDGSFFLYSKLTVDKSRWQQGNVFSCSVMHEALHWHYTQKSLSLSP
chain 2: not shown
- Kd [3]: 0.1 µM

B9: mF38 (antibody)
chain 1: DVQLQESGPVLVKPSQSLSLTCTVTGYSITSDHAWSWIRQFPGNKLEWMGYISYSGITTYNPSLKSRISITRDTSKNQFFLQLNSVTTGDTSTYYCARSLARTTAMDYWGQGTSVTVSSAKTTPPSVYPLAPGSAAQTNSMVTLGCLVKGYFPEPVTVTWNSGSLSSGVHTFPAVLQSDLYTLSSSVTVPSSTWPSETVTCNVAHPASSTKVDKKIVPRDCGCKPCICTVPEVSSVFIFPPKPKDVLYITLEPKVTCVVVDISKDDPEVQFSWFVDDVEVHTAQTQPREEQFNSTFRSVSELPIMHQDWLNGKEFKCRVNSAAFPAPIEKTISKTKGRPKAPQVYTIPPPKEQMAKDKVSLTCMITDFFPEDITVEWQWNGQPAENYKNTQPIMDTDGSYFVYSKLNVQKSNWEAGNTFTCSVLHEGLHWHHTEKSLSHSPGK
chain 2: not shown
- Kd [14]: 0.004 µM

B10: mF39 (antibody)
chain 1: DVQLQESGPVLVKPSQSLSLTCTVTGYSITSDHAWSWIRQFPGNKLEWMGYISYSGITTYNPSLKSRISITRDTSKNQFFLQLNSVTTGDTSTYYCARSLARTTAMDYWGQGTSVTVSSAKTTPPSVYPLAPGSAAQTNSMVTLGCLVKGYFPEPVTVTWNSGSLSSGVHTFPAVLQSDLYTLSSSVTVPSSTWPSETVTCNVAHPASSTKVDKKIVPRDCGCKPCICTVKEVSKVFIFPPKPKDVLYITLEPKVTCVVVDISKDDPEVQFSWFVDDVEVHTAQTQPREEQFNSTFRSVSELPIMHQDWLNGKEFKCRVNSAAFPAPIEKTISKTKGRPKAPQVYTIPPPKEQMAKDKVSLTCMITDFFPEDITVEWQWNGQPAENYKNTQPIMDTDGSYFVYSKLNVQKSNWEAGNTFTCSVLHEGLKNHHTEKSLSHSPGK
chain 2: not shown
- Kd [14]: 0.021 µM
